Test results published in patent publication US20250271431A1 (NEW ERA MABS, published 2025).

Biological target: SARS-CoV-2 Spike protein (D614G, furin-cleavage site destroyed, FKO) on SARS-CoV-2 virus-like particles (VLPs) (SARS-CoV-2, UniProt P0DTC2 14-1273)

B1: hcAb A7.2 (clone A7_2), camelid full length IgG2 heavy chain only antibody (antibody, V domains shown)
VH: DVQLQESGGGLVQPGKSLKLSCAAFGFAFSSTWMHWVRQAPGKGPEWVAFINPGGEKTMHADSVKGRFTISRDDAKNTLYLQMNNLKPEDTAVYYCAIERKDAFSWGQGTQVTVSS
- EC50 (read off the curve): ~400 µg/mL
